{"source": "patent US20230303623A1", "about": "“PEPTIDES AND METHODS OF USE” (REALTA LIFE SCIENCES, INC., priority 2020, published 2023)", "key": {"C1q": {"target": "T1, C1q (Homo sapiens, UniProt P02745+P02746+P02747)", "T1 construct": "purchased Complement Technology (Tyler, TX)", "T1 sequence (P02745 23-245)": "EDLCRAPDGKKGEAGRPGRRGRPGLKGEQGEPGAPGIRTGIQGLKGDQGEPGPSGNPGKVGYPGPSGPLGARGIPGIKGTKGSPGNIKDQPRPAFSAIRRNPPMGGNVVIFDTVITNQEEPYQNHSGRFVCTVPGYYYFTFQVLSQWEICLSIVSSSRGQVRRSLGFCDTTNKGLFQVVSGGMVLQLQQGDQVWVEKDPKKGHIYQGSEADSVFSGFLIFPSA", "T1 sequence (P02746 28-253)": "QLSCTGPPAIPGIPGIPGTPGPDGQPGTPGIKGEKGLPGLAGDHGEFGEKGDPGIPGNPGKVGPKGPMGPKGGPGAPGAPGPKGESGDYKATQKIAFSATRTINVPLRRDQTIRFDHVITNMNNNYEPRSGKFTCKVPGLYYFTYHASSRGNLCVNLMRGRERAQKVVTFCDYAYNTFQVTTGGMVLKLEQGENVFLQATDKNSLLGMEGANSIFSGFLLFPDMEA", "T1 sequence (P02747 29-245)": "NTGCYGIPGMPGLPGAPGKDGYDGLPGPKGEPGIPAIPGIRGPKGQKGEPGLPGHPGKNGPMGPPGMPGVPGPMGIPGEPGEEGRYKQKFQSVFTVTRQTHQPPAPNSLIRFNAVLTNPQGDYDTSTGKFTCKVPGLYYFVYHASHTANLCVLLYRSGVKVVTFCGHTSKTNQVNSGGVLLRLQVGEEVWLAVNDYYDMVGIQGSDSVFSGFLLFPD", "assay": "C1q binding ELISA-type assay", "conditions": "compared to parent peptide", "experimental": "The C1q binding assay was performed as previously described. Briefly, an Immunlon-2 HB ELISA plate was coated with 1 μg/ml C1q in bicarbonate buffer overnight at 4° C. The plates were washed with PBS-T (phosphate buffered saline+0.1% Tween) and then blocked with 1% gelatin/PBS for 2 hours at room temperature. After washing, the plates were incubated with the peptides starting at 2.5 mg/ml and then serially diluted in 1% gelatin/PBS for 1 hour at room temperature followed by washing. Plates were then probed with rabbit antibody raised against the lead peptide […] (SEQ ID NO: 2) that lacked PEGylation at 1:1000 in 1% gelatin/PBS for 1 hour at room temperature followed by a goat anti-rabbit HRP (Sigma Aldrich, St Louis, MO) at 1:1,000 in 1% gelatin/PBS for 1 hour at room temperature with a washing step in between. After addition of TMB substrate solution to the wells, the reaction was stopped using 1N H2SO4, and the plate read on a BioTek Synergy HT plate reader at 450 nm.\nThe astrovirus capsid protein and the PIC1 molecules derived from it inhibit classical complement pathway activation by binding to the pattern recognition molecule C1q. The inventors next tested peptide variant binding to C1q in an ELISA-type assay in which C1q is used as the capture substrate and bound peptide detected with a rabbit polyclonal antibody against the peptide portion of PA-dPEG24 ([…]-d24; SEQ ID NO: 3). Binding curves were derived for the stapled and D-amino acid peptides based on the PA-I8Sar and PA-C9Sar (FIG. 5A-5C) backbone, from which half-maximal binding concentrations were calculated (FIGS. 2A and B, respectively). […] For the peptides based on the PA-C9Sar backbone, C1q was bound to a greater degree than the parent peptide (FIG. 2B)."}, "[1]": {"tested_on": "antibody-initiated complement activation (lysis of AB human red blood cells by type O serum)", "assay": "ABO incompatibility hemolytic complement assay (CH50-type)", "type": "cell-based", "conditions": "peptides 0.8 mg/ml (~0.5 mM); compared to parent peptide", "experimental": "FIG. 1A-1B show PIC1 peptides' inhibition of complement activation in an ABO incompatibility assay. […] Inhibition of ABO incompatibility hemolysis in a CH50-type assay. Peptides are at a final concentration of 0.5 mM. Values are represented as a percent of the positive control, which consists of human 0 sera and AB red blood cells in GVBS^++ buffer. Data are the means of n=3 independent experiments±SEM.\nFor hemolytic complement assays, human red blood cells (RBCs) from type AB donors were purified, washed, and standardized to 1.0×10^9 cells/ml, as previously described. Human sera from type 0 donors at a 15% final concentration was combined with 0.5 mM of the peptides and the volume was brought up to 0.2 ml with GVBS^++ and 5.0×10^7 RBCs. The samples were incubated for 1 hour at 37° C. and then spun at 3,000 rpm for 5 minutes and the supernatant was collected and read at 412 nm. Values are represented as a percent of the positive control, which consists of human 0 sera and AB red blood cells in GVBS^++ buffer.\nTo assess the extent to which the peptide variants inhibit antibody-initiated complement activation, an ABO incompatibility ex vivo assay was utilized in which purified erythrocytes from a ‘type AB+’ donor are incubated with sera from a ‘type 0’ subject containing anti-A and anti-B antibodies. Peptides were tested at a concentration of 0.8 mg/ml (˜0.5 mM)."}, "[2]": {"assay": "Total Antioxidant Capacity (TAC) assay", "conditions": "highest peptide concentration 1.5 mM; compared to parent peptide", "experimental": "As previously reported, the TAC (Total Antioxidant Capacity) Assay (Cell Biolabs, Inc, San Diego, CA) was used to measure the antioxidant capacity of the PIC1 variants based on the reduction of copper (II) to copper (I). The kit protocol was performed per the manufacturer's recommendations.\nThe antioxidant properties for the PIC1 variants were evaluated in a Total Antioxidant Capacity (TAC) assay, as previously reported. Total antioxidant activity over a range of peptide concentrations were determined for the stapled and the D-amino acid peptides based on the PA-I8Sar and PA-C9Sar backbones (FIG. 4A-4B), with the activity of the highest peptide concentration reported (1.5 mM) (FIG. 5A-5C)."}, "MPO": {"target": "T2, MPO (Homo sapiens, UniProt P05164)", "T2 construct": "purchased Lee BioSolutions (Maryland Heights, MO)", "T2 sequence (P05164 279-745 limits assumed)": "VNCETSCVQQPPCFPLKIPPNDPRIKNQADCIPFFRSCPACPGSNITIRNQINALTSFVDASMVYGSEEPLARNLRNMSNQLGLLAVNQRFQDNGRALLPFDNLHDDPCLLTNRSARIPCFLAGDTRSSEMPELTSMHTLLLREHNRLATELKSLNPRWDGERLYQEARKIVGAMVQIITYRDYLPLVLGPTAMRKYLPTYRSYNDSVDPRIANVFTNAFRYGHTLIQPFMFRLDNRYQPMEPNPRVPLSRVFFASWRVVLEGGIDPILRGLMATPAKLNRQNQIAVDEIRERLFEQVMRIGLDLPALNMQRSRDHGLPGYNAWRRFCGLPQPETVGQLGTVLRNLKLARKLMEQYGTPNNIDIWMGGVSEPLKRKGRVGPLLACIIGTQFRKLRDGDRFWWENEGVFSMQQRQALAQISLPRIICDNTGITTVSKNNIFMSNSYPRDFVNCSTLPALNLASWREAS", "T2 sequence (P05164 165-273 limits assumed)": "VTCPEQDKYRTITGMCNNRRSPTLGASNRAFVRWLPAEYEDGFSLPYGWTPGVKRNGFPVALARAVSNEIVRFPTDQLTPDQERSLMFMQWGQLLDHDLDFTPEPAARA", "assay": "MPO activity assay", "type": "biochemical", "conditions": "compared to parent peptide", "experimental": "The MPO activity assay was performed as previously described. Briefly, peptides were diluted to 12 mg/ml and serially titrated in a 96 well plate at a volume of 0.02 ml. MPO was diluted to 20 μg/ml and 0.02 ml was added to the titrated peptides. TMB (3,30,5,50-tetramethylbenzidine) (0.1 ml) was added to each well for 2 minutes, followed by 0.1 ml of 2.5 N H2SO4 for another 2 minutes, and then read on a 96 well plate reader (BioTek) at 450 nm.\nTo ascertain the inhibition of MPO activity by the various peptides, a range of concentrations of the stapled peptides and D-amino acid variants were tested (FIG. 3A-3B) and half-maximal activity levels were calculated from the dose-response curves (FIG. 6A-6C, respectively)."}}, "note": "Bridges are numbered along the chain shown (N, C = ends). Where no end group is shown, it is not given here. [ ]: non-standard residue; d: D form. S5 = C=CCCC[C@](C)(N)C(=O)O; Sar = CNCC(=O)O", "data": [{"substance": "IAdLILEP(Sar)CS5QERS5A (H-IA[dL]ILEP[Sar]C[S5]QER[S5]A-OH; staple 10-14; not fully specified) [PA-0142]", "values": [{"measurement": "binding to C1q (binding curves, half-maximal binding), in words", "setting": "C1q", "result": "did not bind C1q"}, {"measurement": "inhibition of ABO incompatible hemolysis (complement inhibition), in words", "setting": "[1]", "result": "similar"}, {"measurement": "total antioxidant capacity, in words", "setting": "[2]", "result": "decreased activity compared to the parent peptide"}]}, {"substance": "IS5LILS5PI(Sar)CQERAA (I[S5]LIL[S5]PI[Sar]CQERAA; staple 2-6; not fully specified; printed as IS5LILS5PI(Sar)CQERAA) [PA-0152]", "values": [{"measurement": "binding to C1q (binding curves, half-maximal binding), in words", "setting": "C1q", "result": "did not titrate"}, {"measurement": "inhibition of MPO activity (half-maximal values), in words", "setting": "MPO", "result": "decreased MPO inhibition"}]}]}
